# Assay results from US20260008852A1 (CRYSTAL BIOSCIENCE, published 2026).
# T1: His-tagged human B7-H3 (human, UniProt Q5ZPR3-2 29-245, limits assumed)
# T1 construct: Bought His-tagged protein coated on the ELISA plate; also called hu B7-H3; CD276
# T1 sequence (looked up): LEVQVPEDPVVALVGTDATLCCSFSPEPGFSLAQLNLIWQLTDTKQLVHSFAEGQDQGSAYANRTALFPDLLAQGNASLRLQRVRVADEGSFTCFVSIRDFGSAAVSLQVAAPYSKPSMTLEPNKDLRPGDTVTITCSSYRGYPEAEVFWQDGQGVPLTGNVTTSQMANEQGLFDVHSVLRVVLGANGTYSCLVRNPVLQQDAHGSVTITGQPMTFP
# T2: His-tagged mouse B7-H3 (mouse, UniProt Q8VE98 29-244, limits assumed)
# T2 construct: Bought His-tagged protein coated on the ELISA plate; also called mu B7-H3; murine B7-H3
# T2 sequence (looked up): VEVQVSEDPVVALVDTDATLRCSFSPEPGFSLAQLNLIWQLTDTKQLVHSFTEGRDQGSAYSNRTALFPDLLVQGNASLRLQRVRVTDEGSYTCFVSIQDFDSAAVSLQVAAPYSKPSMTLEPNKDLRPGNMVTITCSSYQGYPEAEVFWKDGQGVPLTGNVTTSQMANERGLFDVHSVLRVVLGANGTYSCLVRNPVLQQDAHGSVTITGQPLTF
# T3: His-tagged cynomolgus monkey B7-H3 (cynomolgus monkey)
# T3 chain: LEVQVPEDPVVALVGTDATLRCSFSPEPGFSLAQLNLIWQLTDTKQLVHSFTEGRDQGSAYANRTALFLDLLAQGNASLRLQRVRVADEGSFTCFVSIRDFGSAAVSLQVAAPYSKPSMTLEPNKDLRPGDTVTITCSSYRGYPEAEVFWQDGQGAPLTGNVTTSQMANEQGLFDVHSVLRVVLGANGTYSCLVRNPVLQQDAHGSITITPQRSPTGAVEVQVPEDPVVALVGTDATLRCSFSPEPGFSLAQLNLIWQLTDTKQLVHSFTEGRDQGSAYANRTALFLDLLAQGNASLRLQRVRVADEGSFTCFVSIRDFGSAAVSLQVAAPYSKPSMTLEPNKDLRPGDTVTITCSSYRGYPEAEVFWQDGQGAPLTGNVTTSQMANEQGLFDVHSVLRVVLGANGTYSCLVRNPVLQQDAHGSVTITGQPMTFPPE
# T4: B7-H3 on B7-H3-expressing CHO cells (Genescript) (UniProt Q5ZPR3 29-534, limits assumed)
# T4 construct: whole, on cells; also called CHO-K1/B7-H3; MFI B7-H3
# T4 sequence (looked up): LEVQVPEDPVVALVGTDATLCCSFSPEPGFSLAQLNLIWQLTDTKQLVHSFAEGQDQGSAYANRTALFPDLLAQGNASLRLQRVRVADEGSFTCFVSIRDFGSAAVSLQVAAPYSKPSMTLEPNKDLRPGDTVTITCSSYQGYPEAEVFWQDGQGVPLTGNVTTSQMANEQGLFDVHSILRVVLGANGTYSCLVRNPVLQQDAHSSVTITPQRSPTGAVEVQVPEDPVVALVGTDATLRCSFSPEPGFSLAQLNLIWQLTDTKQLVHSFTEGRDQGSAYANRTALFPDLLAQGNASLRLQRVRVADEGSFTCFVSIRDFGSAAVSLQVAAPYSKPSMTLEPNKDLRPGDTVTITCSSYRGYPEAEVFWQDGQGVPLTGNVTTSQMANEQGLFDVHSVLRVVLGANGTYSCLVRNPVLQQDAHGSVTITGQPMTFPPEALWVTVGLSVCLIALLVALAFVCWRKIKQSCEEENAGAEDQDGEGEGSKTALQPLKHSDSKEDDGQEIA
# Columns and labels:
# His-tagged human B7-H3 [1] = target: T1, His-tagged human B7-H3; test: ELISA OD450 on hu B7-H3 over OD450 on mu B7-H3
# Method: (§1) The variable regions of heavy and light chains were cloned and assembled into a single chain Fv-Fc (ScFv-Fc) mammalian expression vector. Sanger sequencing was performed by GeneWiz and sequences were evaluated using DNASTAR Lasergene 15. Unique scFv-Fes were transiently expressed in Expi293 cells (Life Technologies, #A14527) grown in Expi293 Expression Medium (Life Technologies, #A1435101) after transfection using the ExpiFectamine transfection reagent and supplements (Life Technologies, #A14524). Cells were incubated for 3-5 days with shaking at 37° C. in a 5% CO2 humidified incubator.
# His-tagged human B7-H3 [2] = target: T1, His-tagged human B7-H3; test: ELISA, coated His-tagged antigen, scFv-Fc 1 ug/ml
# Method: as §1
# His-tagged mouse B7-H3 = target: T2, His-tagged mouse B7-H3; test: ELISA, coated His-tagged antigen, scFv-Fc 1 ug/ml
# Method: as §1
# [3] = target: T3, His-tagged cynomolgus monkey B7-H3; test: ELISA, coated His-tagged antigen, scFv-Fc 1 ug/ml
# Method: as §1
# [4] = target: T4, B7-H3 on B7-H3-expressing CHO cells …; test: flow cytometry, B7-H3-expressing CHO cells, 10 ug/ml
# Method: Binding of anti-B7-H3 antibodies to cell lines was assessed by flow cytometry. Briefly, approximately 1.5 e5 B7-H3-expressing CHO cells (Genescript) or parent CHO cells (ATCC) were resuspended in FACS buffer (PBS/1% BSA/0.01% NaN3) containing 10 μg/ml of anti-B7-H3 antibodies and incubated for 60 min on ice. […] Cells were then washed twice, resuspended in FACS buffer, and read on an Attune Flow Cytometer (Life Technologies). Data are expressed as Mean Fluorescent Intensities (MFI).
hu:mu ratio (His-tagged human B7-H3 [1]),ELISA OD450 @ 1 ug/ml (His-tagged human B7-H3 [2]),ELISA OD450 @ 1 ug/ml (His-tagged mouse B7-H3),ELISA OD450 @ 1 ug/ml [3],MFI @ 10 ug/ml [4],Binder
1.13,2.09 OD450,1.85 OD450,1.65 OD450,81100 MFI,"40633p1.1.C11 (scFv, V domains shown, Tested as scFv-Fc (Expi293 supernatant)) VH: EVQLLESGGGLVQPGGSLRLSCAASGFTFSSYWMSWVRQAPGKGLEWVAGINRNGGTTYYADSVKGRFTISRDNSKNTLYLQMNSLRAEDTAVYYCARWNDYDIMDVWGQGTTVTVSS VL: not shown"
1.45,2.19 OD450,1.51 OD450,1.92 OD450,75100 MFI,"40633p1.2.D7 (scFv, V domains shown, Tested as scFv-Fc (Expi293 supernatant)) VH: EVQLLESGGSLVQPGGSLRLSCAASGFTFSSYWMSWVRQAPGKGLEWVSGISSSGSATYYADSVKGRFTISRDNSKNTLYLQMNSLRAEDTAVYYCARWNDYDIMDVWGQGTTVTVSS VL: not shown"
1.32,2.2 OD450,1.67 OD450,1.81 OD450,60100 MFI,"40633p1.1.G10 (scFv, V domains shown, Tested as scFv-Fc (Expi293 supernatant)) VH: EVQLLESGGGLVEPGGSLRLSCAASGFSFSSYGMHWVRQAPGKGLDWVAVINGEGSGTYYADSVKGRFTISRDNSKSTLYLQMNSLRAEDTAVYYCTKYYYNYAMDVWGQGTTVTVSS VL: QSVLTQPPSASGTPGQRVTISCSGSRTDIGTTSVNWYQQLPGTAPKLLIYQSHQRPSGVPDRFSGSKSGTSASLAISGLQSEDEADYYCASWDASQNTWVFGGGTKLTVL"
3.01,0.554 OD450,0.184 OD450,1.63 OD450,44000 MFI,"40633p1.1.E3 (scFv, V domains shown, Tested as scFv-Fc (Expi293 supernatant)) VH: EVQLLESGGGLVQPGGSLRLSCAASGFTVSYYGMSWVRQAPGKGLEWVSAIKQDGSEKYYADSVKGRFTISRDNSKNTLYLQMNSLRAEDTAVYYCARHWNDYSNAMNVWGQGTTVTVSS VL: not shown"
3.09,0.794 OD450,0.257 OD450,1.49 OD450,41000 MFI,"40633p1.1.G5 (scFv, V domains shown, Tested as scFv-Fc (Expi293 supernatant)) VH: EVQLLESGGGLVQPGGSLRLSCAASGFIVNYYGMSWVRQPPGKGLEWVSAIKQDGSEKYYADSVKGRFTISRDNSKTTLYLQMNSLRAEDTAVYYCARHWNDYSNGMNVWGQGTTVTVSS VL: QSVLTQPPSASGTPGQRVTISCSGSWSNIGSYNSHWYQKLPGTAPKLLIYTTDRRPSGVPDRFSGSKSGTSASLAISGLQSEDEADYYCGTWDDSLNVWVFGGGTKLTVL"
2.44,1.39 OD450,0.572 OD450,1.53 OD450,43500 MFI,"40633p1.1.E6 (scFv, V domains shown, Tested as scFv-Fc (Expi293 supernatant)) VH: EVQLLESGGGLVQPGGSLRLSCAASGLTFSSYAMNWVRQAPGKGLEWVAGIGGSGSSTYHTDSVKGRFTISRDNSKNTLYLQMSSLRAEDAAVYYCAKEDHWSGGMDVWGQGTTVTVSS VL: not shown"
1.28,2.14 OD450,1.68 OD450,1.89 OD450,69900 MFI,"40633p1.1.G3 (scFv, V domains shown, Tested as scFv-Fc (Expi293 supernatant)) VH: EVQLLESGGGLVQPGGSLRLSCAASGLTFSSYAMNWVRQAPGKGLEWVAGIGGSGSSTYHTDSVKGRFTISRDNSKNTLYLQMNSLRAEDAAVYYCAKEDHWSGGMDVWGQGTTVTVSS VL: not shown"
1.47,1.76 OD450,1.2 OD450,1.77 OD450,66800 MFI,"40633p1.1.F2 (scFv, V domains shown, Tested as scFv-Fc (Expi293 supernatant)) VH: EVQLLESGGGLVQPGGSLRLSCVASGLTFNGFAMTWVRQAPGKGLEWVSGISWNSGSIYYADSVKGRFTISRDNSKNTVYLQMSSLRAEDTAIYYCAKNWNDYYNSMDVWGQGTTVTVSS VL: QSVLTQPPSASGTPGQRVTISCSGSRSNIGTKYVYWYQQFPGTAPKLLIYTTDRRPSGVPDRFSGSKSGTSASLAISGLQSEDEADYYCSAWDDRLNAWVFGGGTKLTVL"
1.1,2.07 OD450,1.88 OD450,1.92 OD450,81300 MFI,"40633p1.1.H11 (scFv, V domains shown, Tested as scFv-Fc (Expi293 supernatant)) VH: EVQLLESGGGLVQPGGSLRLSCAASGFTFSSYPMTWVRQAPGKGLEWVADINSGGGTTLYADAVKGRFTISRDNSKNIVYLQMNSLRGEDTAVYYCAKHLDYYSYGMDVWGQGTTVTVSS VL: QSVLTQPPSASGTPGQRVTISCSGVTSKIGSKYVHWYQQLPGTAPKLLIYRNFERPSGVPDRFSGSTSGTSASLAISGLQSEDEADYYCATWEGALNGWVFGGGTKLTVL"
1.19,1.92 OD450,1.61 OD450,2.11 OD450,84200 MFI,"40511p1.1.D6 (scFv, V domains shown, Tested as scFv-Fc (Expi293 supernatant)) VH: DVQLVESGGGVVRPGESLTLSCAASGFTINSYAVSWVRQAPGEGLEWVSGISGSGVRYYADSVKGRFTISRDNSNNTLYLQMNSLRAEDTAVYYCARSNKVTWNNFFDYWGLGTLVTVSS VL: EVVLTQSPGTLTLSPGERATLSCRASRSILTSLAWYQQKPGQAPRLLIYNTVTRATGIPARFSGSGSGTEFTLTINSLQSEDFAVYYCQQYYDWPPLTFGGGTKVEIK"
1.15,2.16 OD450,1.87 OD450,1.95 OD450,78300 MFI,"40633p1.1.G7 (scFv, V domains shown, Tested as scFv-Fc (Expi293 supernatant)) VH: EVQLLESGGGLVQPGGSLRLSCAASGFTFSGSAMNWVRQAPGKGLEWVSAINSGGTTIYYADSVKGRFTVSRDNSKNTLYLQMNSLRAEDTAVYYCVKLDFYYGMDVWGEGTTVTVSS VL: QSVVTQPPSASGTPGQRVTVSCSGSSSNVGSKYVQWYQQLPGTAPKLLIYATDRRPSGVPDRFSGSKSGTSASLAISGLQSEDEADYYCASWDDSLNAWVFGGGTKLTVL"
1.18,1.72 OD450,1.45 OD450,1.91 OD450,78600 MFI,"40633p1.1.D11 (scFv, V domains shown, Tested as scFv-Fc (Expi293 supernatant)) VH: EVQLLESGGGLVQPGGSLRLSCAASGFTFRSYAMSWVRQAPGKGLEWVAYIGSSGGTTYYADSVKGRFTISRDNSKNTLYLQMNSLRAEDTAVYYCVKESYYYMDVWGQGTTVTVSS VL: QSVLTQPPSASGTPGQRVTISCSATISNIDINRVSWYQQLPGTAPKLLIFNSQRPSGVPDRFSGSKSGTSASLAISGLQSEDEADYYCATWDDSLNSWVFGGGTKLTVL"
